Assay results taken from article PMC8531446, “Light-triggered and phosphorylation-dependent 14-3-3 association with NON-PHOTOTROPIC HYPOCOTYL 3 is required for hypocotyl phototropism” (Nature Communications, 2021).

Key:
[1] = biological target: T1, GFP:NPH3 from N. benthamiana (Arabidopsis thaliana, UniProt Q9FMF5 1-746, phosphoserine at 744 upon blue light irradiation only (α-pS744 antibody)); assay: far-Western, overlay or dot blot; anti-GFP immunoprecipitates from blue-light-treated N. benthamiana leaves (10 μmol m^-2 s^-1, 40 min) or Arabidopsis nph3-7 seedlings (1 μmol m^-2 s^-1) separated by SDS-PAGE, on nitrocellulose; overlaid with RGS(His)6-14-3-3 omega at 20 μg ml^-1 in 50 mM MOPS pH 6.5, 20% glycerol, 5 mM MgCl2, 2 mM DTT, overnight at 4 °C; anti-RGS(His)6 detection; conditions: both partners purified
T1 construct: NPH3, Arabidopsis thaliana; cloned into pH7WGF2; S746 is the last residue; source: N. benthamiana leaves, transiently transformed (35S promoter), anti-GFP immunoprecipitate (GFP-Trap beads); not shown: GFP, N-terminal, kept
T1 sequence (looked up): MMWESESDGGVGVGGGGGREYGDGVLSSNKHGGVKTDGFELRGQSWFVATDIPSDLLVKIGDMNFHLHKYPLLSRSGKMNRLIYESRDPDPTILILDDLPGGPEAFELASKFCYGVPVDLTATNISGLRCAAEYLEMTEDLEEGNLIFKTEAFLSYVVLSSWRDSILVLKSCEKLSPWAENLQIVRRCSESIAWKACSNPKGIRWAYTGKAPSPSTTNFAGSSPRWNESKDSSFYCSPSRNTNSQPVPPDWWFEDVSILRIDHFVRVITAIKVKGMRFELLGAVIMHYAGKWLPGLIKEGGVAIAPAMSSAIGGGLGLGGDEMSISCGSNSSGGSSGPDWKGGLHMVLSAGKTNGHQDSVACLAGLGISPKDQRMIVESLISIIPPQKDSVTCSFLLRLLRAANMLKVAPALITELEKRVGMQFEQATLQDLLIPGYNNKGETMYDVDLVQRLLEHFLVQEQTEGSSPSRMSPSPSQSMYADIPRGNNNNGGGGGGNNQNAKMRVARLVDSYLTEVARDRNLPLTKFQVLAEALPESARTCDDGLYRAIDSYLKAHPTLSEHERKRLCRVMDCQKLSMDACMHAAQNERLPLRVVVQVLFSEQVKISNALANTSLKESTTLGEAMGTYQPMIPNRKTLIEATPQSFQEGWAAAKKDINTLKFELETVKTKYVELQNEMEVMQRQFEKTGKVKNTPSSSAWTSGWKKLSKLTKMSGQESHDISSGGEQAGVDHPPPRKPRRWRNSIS

[2] = biological target: T2, GFP:NPH3 from transgenic Arabidopsis nph3-7 (Arabidopsis thaliana, UniProt Q9FMF5 1-746, phosphoserine at 744 upon blue light irradiation (α-pS744 antibody); dephosphorylated on prolonged irradiation or re-transfer to darkness); assay: as above; conditions: both partners purified
T2 construct: NPH3, Arabidopsis thaliana; cloned into pH7WGF2; S746 is the last residue; source: Arabidopsis nph3-7 seedlings, stably expressed (35S promoter), anti-GFP immunoprecipitate (GFP-Trap beads); not shown: GFP, N-terminal, kept
T2 sequence (looked up): T1 sequence (looked up)

binding result [1]: binds
binding result [2]: binds
B1: RGS(His)6-tagged Arabidopsis 14-3-3 isoform omega (natural protein, UniProt Q01525 1-259, looked up)
chain: MASGREEFVYMAKLAEQAERYEEMVEFMEKVSAAVDGDELTVEERNLLSVAYKNVIGARRASWRIISSIEQKEESRGNDDHVTAIREYRSKIETELSGICDGILKLLDSRLIPAAASGDSKVFYLKMKGDYHRYLAEFKTGQERKDAAEHTLAAYKSAQDIANAELAPTHPIRLGLALNFSVFYYEILNSPDRACNLAKQAFDEAIAELDTLGEESYKDSTLIMQLLRDNLTLWTSDMQDDAADEIKEAAAPKPTEEQQ
notes: 14-3-3 isoform omega, Arabidopsis; cDNA in the expression vector pQE-30; also called purified recombinant 14-3-3 proteins; RGS(His)6-tagged 14-3-3; source: E. coli M15, purified (Ni2+-NTA agarose, native conditions)
